Results published in the RNAGym collection of RNA variant scans (doi:10.1073/pnas.2313332121).
Fewer inactive variants are shown than the library holds.

B1: TPR 5TU (parent)
chain: GGAUCUUCUCGAUCUAACAAAAAAGACAAAUCUGCCACAAAGCUUGAGAGCAUCUUCGGAUGCAGAGGCGGCAGCCUUCGGUGGCGCGAUAGCGCCAACGUUCUCAACUAUGACACGCAAAACGCGUGCUCCGUUGAAUGGAGUUUAUCAUG

Variants of: B1
Assay: polymerase ribozyme fitness, log enrichment relative to wild type (log ratio); higher = more active; in vitro selection for triplet polymerase activity
How it was run: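 Mutant libraries for each subunit of a heterodimeric triplet polymerase ribozyme were made by PCR and then transcribed. Each library underwent one round of in vitro selection in triplicate: annealing with a biotinylated primer, the partner subunit and triplets, frozen incubation at −7 °C, gel excision of extended constructs, streptavidin-bead capture and RT-PCR. Input and output libraries were Illumina-sequenced, and only genotypes with ≥10 input reads and ≥1 read per output were kept. Fitness is the logarithm, base 2, of genotype enrichment over wild-type enrichment, computed from inverse-variance-weighted replicate averages.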

Variant	polymerase ribozyme fitness (log ratio)
U4G C57A A73G C87U	-0.214
C5G U77A G94U G140C G152A	≤ -4.2
U4A U55A A64C	≤ -4.2
C5U A41U G83A	-1.02
C5G C85A C116A	0.0205
C5A A89G C95G C132U	-3.03
U6A C18U A20C A22C U44C U55A C87A	≤ -4.2
U6A A60G C76A U144C	-0.452
U6A A20C U31C C96A U127C	-1.86
C5G A23G A49U U77G G86A A137G	≤ -4.2
C5A C57A A119U A137G U146G	-2.37
A3U U7A C14A A41C U45G C69A C87A G94A A121C	≤ -4.2
C5A C57U G59C C96G U101G	-0.41
U4G C85U	-0.873
U4A G48U C57G C93U G136A U146G	-2.55
U4A A147C	-0.789
U4A A19C A89U C96U A138G U146G	≤ -4.2
U4C U6G G74C G80C G92U C103G A106U	≤ -4.2
U4C G11U U53C	-2.27
C5A U9C G42A A52G A66C G74A U82A A89U C123A C129A G133U	≤ -4.2
U6A A28G G59A C93U C99G C108A G140A G141U	≤ -4.2

Variant	polymerase ribozyme fitness (log ratio)
C5A C54A C57A G58A G68A A89U C95G	≤ -4.2
C5A G59A C76U U77A G84A C118G C132G	≤ -4.2
C5A C27A C87A U109A G126A	≤ -4.2
U6A A37U G124A G126C	-2.83
C5G A21C A29U U82A G94A G136C U151C	≤ -4.2
U6A C10A U31A A49C U53A C76G G81A G92A A106G G117A	≤ -4.2
C5U C96A	0.48
U4G A20G C35U G94C A97G C118A A137G A142U	-4.11
A3U U82G	-0.249
A3U U7C A52C C95U C99U	≤ -4.2
U6A A19C U56A G83A G124C	-1.45
C5G C54A G58C A73G C79A C87U C116A A138G	≤ -4.2
C5U A52U A64C G70C C85A C116G A122U C125U A150G	≤ -4.2
U6A C96U	-0.0433
C5G A52C G58A C93A C118U	-3.09
A3U U45A C96A	-3.51
U6A A28G A73G C93G C99A C131A	-4.19
C5U C18U C76G C105U U148A	≤ -4.2
C5A A21C C35U G74C G128U U139G	≤ -4.2
C5G C32G C72U A73G A91G A119U G141A	≤ -4.2
C5G C36A G58A A73G C85U	≤ -4.2

Variant	polymerase ribozyme fitness (log ratio)
U4C C87G A107G	≤ -4.2
U6A C14U U82C G86A	-4.09
C5A U9C C10G A26U U90G A137G A142U	≤ -4.2
U6A G50A A89U G92U A137G	-3.34
C5U A142U	-0.885
C5A C54U A73G A119G G136A	-0.371
U4C A12U A21G G59A C85G G124U	-2.83
C5G G25C C54A C75G G83U	≤ -4.2
U6A A20U C27U G46A C87A	≤ -4.2
C5G G84U	-2.38
A3U U4C A52C G67A G83U A122U A137U U148A	≤ -4.2
C5A U9C C85A	-2.68
U4A C10U A26U U31G A39G C57A C85A U90G A113C	≤ -4.2
U4C A52G G58U	-0.303
U6A C14U G65U A91G U148A	≤ -4.2
U6A C93U	-1.6
U6A C93G	-3.92
C5G U90G C93A C116G A142C	≤ -4.2
U4G A41U G50C C85G	≤ -4.2
C5G A52G G80A	-1.81
A3U U15C G81U A97U G128U	-3.58

Variant	polymerase ribozyme fitness (log ratio)
C5G C54G U56G C95U C125U C129A G133U	≤ -4.2
C5G A19U A91G A113G	≤ -4.2
C5A U7G C32G A115U U146C	≤ -4.2
C5U G46A U61G	-4.13
U6A C14G G34A C87U C105U U145G	-4.05
C5G U53A U56A G68C G94A C118U U148A A150C	≤ -4.2
C5G C8A C27U A49C U56A G94A C95G U109G	≤ -4.2
U6A G58C G94A	-0.942
C5G C10G G92A C123U A138C G143A	≤ -4.2
C5G C35U G59C C87U G100U C125G G133A U145C	≤ -4.2
C5A C93U C105U C149G	-3.96
C5A C27U U55G G83A G92U U148A	≤ -4.2
U4A C54U G92U C118U U134A	-3.6
U6A A21U U31A G74A	≤ -4.2
C5A A66G C96U A115G U139G G140A	≤ -4.2
U4G U13G C93U A120G G143A U148C	≤ -4.2
C5G U13A	-1.14
U4C C51U C96A A121C U134A	-3.3
C5G C54A G65C A66G C85U	≤ -4.2
U4G A37U G81A C99A A106C U127G	≤ -4.2
U4C C14U G42A G84A C105G	≤ -4.2
